B1: TPR t1 (parent)
chain: GACCAAUCUGCCCUCAGAGCUCGAGAACAUCUUCGGAUGCAGAGGAGGCAGGCUUCGGUGGCGCGAUAGCGCCAACGUCCUCAACCUCCAAUGCAUCCCACCACAUGAUGAUGCCUGAAGAGCCUUGGUUUUUUG

Variants of: B1
Test: polymerase ribozyme fitness, log enrichment relative to wild type (log ratio); higher = more active; in vitro selection for triplet polymerase activity
Outline: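 A heterodimeric triplet polymerase ribozyme had each of its subunits mutagenized by PCR into a library, which was transcribed. One round of in vitro selection, done in triplicate, annealed each library with a biotinylated primer, its partner subunit and triplets, then incubated it frozen at −7 °C before gel excision of extended constructs, streptavidin-bead capture and RT-PCR. Fitness is the logarithm of genotype enrichment relative to wild-type enrichment, based on Illumina sequencing of inputs and outputs and inverse-variance-weighted replicate averages. A base-2 logarithm is used, and genotypes were kept only with ≥10 input reads and ≥1 read per output.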

Variant | polymerase ribozyme fitness (log ratio)
C94A A121C G122U U129A | -2.35
A91U C104U | -1.47
A91U C104A | -4.59
C89A G113U | -3.35
C89G U126G | -3.19
C94A A118U | -0.204
U92C G113A | -1.23
C89G C102A C114A | -5.12
G93C C101U C104A | -1.95
C88U G110A | -1.46
A95C G120U U129A | -1.76
C88U C97A U109G | -6.35
U92A A121U | -0.332
U92A A121G | -0.696
G93U G113C U125A | -3.4
G93C C98U A121U | 1.01
C94U C102G | -6.09
G93A A118G G135U | -1.11
A90G U112G U116C | -0.0889
A90G | 0.347
A90U | -1.2
A90C | -1.08
A91U G93C G113C G135U | -3.6
U96A C123A | -1.45

Variant | polymerase ribozyme fitness (log ratio)
G93U G117C | -4.08
C89G G122A | -3.38
G93A C98A | -5.11
A91G C101U | -1.08
C89A A95C | -3.6
U92A A121U U125G | -1.83
C89A G110C | -5.43
C89G C101A | -2.55
C88U C89G U92G | -2.44
C94G C115A A121C | 0.289
A91G C115G | -4.4
A90U G113C | -2.53
A90U G113A | -1.1
G93A C124A | 0.841
G93U G110A G120U | -4.68
A95U G113A G122A | -3.26
C89G C124U | 0.383
A91U A111G | -1.26
G93C C123A | -1.09
C89A C102G | -6.86
A90G C101G G113A G117C | -5.96
C89A G110U U132C | -4.16
G93A G135U | -2.04
A90U G117C A118C | -3.48

Variant | polymerase ribozyme fitness (log ratio)
C89A A100U | -2.67
A95C G113U | -3.39
A91U U116G G120C G128U | -4.65
C89U G135U | -0.983
G93C U130C | -0.714
G93C C94A | -1.68
U96A G117U | -3.63
A95G C124U U130G | 0.565
A90U C104A G113C | -3.66
A90G C99U U106C | -2.51
C89G G93C | -3.36
C94A A100G C114U C124G | -5.66
C89U G120A U129G | -1.07
G93U C114A | -3.05
U92A G113A U125C | -3.27
U92C A121C | 1.53
C89A U92G U116G | -5.83
G93A C115A U131A | -0.388
U92A G113U | -3.75
C89G C104U | -0.672
G93A C101U C123U | 0.532
C88U A118G | 0.0785
A90U C98G C114G G117C C123U U126C | -5.73
C94A G117U U125A | -5.92

Variant | polymerase ribozyme fitness (log ratio)
A91U G117A G120C G135C | -3.63
A95G C101A A111C | -1.91
C88U C98G C114G | -6.17
C88U C89A | -1.24
A90G U116A | -1.88
A95C G110U | -2.32
C88U A100G A108G U133G | -5.29
C94G U106A G135U | -1.54
U92C U112C | 0.33
G93U C98U | -2.33
G93C A100C U130A | -2.66
A90C A118U | -0.0445
A90C A118C | -2.82
C89A G117A A121U | -0.932
C89A C124G | -0.00331
A95U C102U C104A G110C G128U | -5.5
C89A C94U U116A | -5.8
C88G G113U U125C U132A | -3.76
G93C G120A | 1.58
U92C U116C | -2.42
C89U G113C G120C | -3.26
A90C C101G | -3.07
C89A U106A G113C C123G | -1.57
G93U U106A | -1.03

Variant | polymerase ribozyme fitness (log ratio)
G93U C97U | -0.996
U92G G110A | -5.46
C94U U130G | -1.07
C89G C94A | -2.52
C89G C94U | -0.951
C94G C114G G120C | -4.95
U92A C115G C123G | -5.89
C89G G113A G127U | -4.45
U96A A105U | -4.09
C89U A121U | 2.14
A95U U109G G120C | -5.29
A90U C97U U125A G127C U130G | -3.85
A95U U132A | -1.52
C89G C115A G120C | -1.16
C88U C94U U129G | -1.48
A95G A121U | 2.11
C89A U125A | -1.17
C89U A95U C115U | -2.59
U96A G117A G120A U130C | -3.72
A90C C102U A111G | -4.24
C94G C102U | -3.04
U92A U133A | -2.62
A91U G110C A121U | -5.81
G93A G110A | -1.24

Variant | polymerase ribozyme fitness (log ratio)
G93A G110C | -5.32
U96A G120U G128U | -1.74
C94A U125A | -0.423
C94A U125G | -1.1
A91C C104U C123U | 0.398
U92C C115U | -2.72
A91U A121U | 0.873
A95G A111G | 0.572
A91C G120U | -1.5
G93A C115U | -1.29
A90U A95U G113C G122U | -1.98
C88U C114U | -1.17
C88U C114G | -3.05
C88U U92A | -2.45
G93A A105C | -3.13
A90C C114A C124A U125C | 0.0876
U96A C104U | -0.116
U96A C104A | -3.3
G93U A108G G120U | -3.31
A90U G110A | -4.07
U92G U106A | -1.97
G93C C102U | -3.11
U96A G113A | -1.86
G93A U109A | -5.41

Variant | polymerase ribozyme fitness (log ratio)
G93U U96G U106A G127C | -3.43
A91U U112G | -1.73
A95C C123G | -0.428
A91C G113U | -3.8
A90C C124U | 0.931
A90G C97U A105C U130A | -3.67
A95U A111U G120U | -5.49
C89U G120U U125A | -0.262
G93C C114A | -1.83
G93C C114U | -1.65
C88U A91U C115G | -3.9
C89G G113C | -3.04
G93C U132C | -1.62
U92G G117C U129C U133C | -4.13
U92G C94U | -4.52
C89A C123A | -1.82
C94U A111G | 0.127
C88U C99U | -2.42
U96A U129C | -1.7
A95C A119U | -1.28
C94A U129G | -1.07
C94U C115U A121G | -2.09
G93A U116A U130G | -4.69
